Substrate in this data set: NCCSC[C@H](N)C(=O)O
Kind of data set: cells, lysate or membranes. The conditions noted are these: inside-out membrane vesicles energized with 0.25 mM ATP; 50 mM KCl, 10 mM MgSO4, valinomycin 0.25 uM; Thl 0.5-5 mM; Thl/H+ antiport (export direction).

Consider one protein from publication PMC8498466.

B1: LysO (LysON-HA) (Escherichia coli K-12) (protein)
chain: MFSGLLIILVPLIVGYLIPLRQQAALKVINQLLSWMVYLILFFMGISLAFLDNLASNLLAILHYSAVSITVILLCNIAALMWLERGLPWRNHHQQEKLPSRIAMALESLKLCGVVVIGFAIGLSGLAFLQHATEASEYTLILLLFLVGIQLRNNGMTLKQIVLNRRGMIVAVVVVVSSLIGGLINAFILDLPINTALAMASGFGWYSLSGILLTESFGPVIGSAAFFNDLARELIAIMLIPGLIRRSRSTALGLCGATSMDFTLPVLQRTGGLDMVPAAIVHGFILSLLVPILIAFFSA
In the case of B1, the Km was found to be 1.5 mM.
